Measurements published in publication PMC7105911 (Journal of Molecular Biology, 2011).
Several values for one entry are separate records, joined by “and”; a condition that tells them apart may be missing. Equal entries are not always repeated.

Experiments:
Assay in all cases: SPR
[1] = target: T1, SC_2cx5 (side-chain grafting 2F5 epitope scaffold on parent PDB 2cx5) (designed scaffold on Thermus …)
T1 chain: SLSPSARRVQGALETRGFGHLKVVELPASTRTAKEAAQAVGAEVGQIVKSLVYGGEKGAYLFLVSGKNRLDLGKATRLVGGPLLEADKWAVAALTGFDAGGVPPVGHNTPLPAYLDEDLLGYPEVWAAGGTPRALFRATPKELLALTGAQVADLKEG

[2] = target: T2, SC_1wnu (side-chain grafting 2F5 epitope scaffold on parent PDB 1wnu) (designed scaffold on Pyrococcus …)
T2 chain: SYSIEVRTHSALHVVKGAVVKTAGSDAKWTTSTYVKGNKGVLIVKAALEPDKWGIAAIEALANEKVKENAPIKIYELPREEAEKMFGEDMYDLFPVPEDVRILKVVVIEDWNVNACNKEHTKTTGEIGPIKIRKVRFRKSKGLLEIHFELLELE

[3] = target: T3, BB_1wnu_001 (backbone grafting 2F5 epitope scaffold on parent PDB 1wnu) (designed scaffold on Pyrococcus …)
T3 chain: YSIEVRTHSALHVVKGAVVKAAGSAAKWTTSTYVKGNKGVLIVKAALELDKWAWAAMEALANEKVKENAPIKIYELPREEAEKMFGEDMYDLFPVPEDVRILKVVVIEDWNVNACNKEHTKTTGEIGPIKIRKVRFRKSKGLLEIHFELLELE

[4] = target: T4, BB_2cx5_001 (backbone grafting 2F5 epitope scaffold on parent PDB 2cx5) (designed scaffold on Thermus …)
T4 chain: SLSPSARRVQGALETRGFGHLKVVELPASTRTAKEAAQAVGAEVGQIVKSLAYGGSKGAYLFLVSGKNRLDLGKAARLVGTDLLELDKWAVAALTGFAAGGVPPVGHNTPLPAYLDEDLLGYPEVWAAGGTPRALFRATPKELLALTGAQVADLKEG

Kd [1]: 40.2 nM and 38.3 nM
Kd [2]: 91 nM
Kd kinetic, step 1 (conformational change model) [2]: 0.000109 mM
Kd kinetic, step 2 (conformational change model) [2]: 3800 mM
Kd [3]: 8.3 nM and 8.7 nM
Kd [4]: 1.4 nM
B1: 2F5 monoclonal antibody (2F5 IgG) (antibody, V domains shown)
VH: RITLKESGPPLVKPTQTLTLTCSFSGFSLSDFGVGVGWIRQPPGKALEWLAIIYSDDDKRYSPSLNTRLTITKDTSKNQVVLVMTRVSPVDTATYFCAHRRGPTTLFGVPIARGPVNAMDVWGQGITVTISS
VL: ALQLTQSPSSLSASVGDRITITCRASQGVTSALAWYRQKPGSPPQLLIYDASSLESGVPSRFSGSGSGTEFTLTISTLRPEDFATYYCQQLHFYPHTFGGGTRVDVR
